Here are results for 1 molecule from PMC7666536 (Cell, 2020).

For the assay, the target named is SARS-CoV-2 nsp12 (RNA-dependent RNA polymerase) (SARS-CoV-2, UniProt P0DTD1). As to the kind of experiment: cryo-EM structure.

B1: SARS-CoV-2 nsp9 (full-length, residues N1–Q113) (natural protein)
chain: NNELSPVALRQMSCAAGTTQTACTDDNALAYYNTTKGGRFVLALLSDLQDLKWARFPKSDGTGTIYTELEPPCRFVTDTPKGPKVKYLYFIKGLNNLNRGMVLGSLAATVRLQ
Take B1: the binding result is reported as “binds”.
